According to the supplement of paper PMC6379048:

Assays:
Assay in all cases: EC50 of free RNA motif oligo competing protein binding to immobilised probe
SYMPK = target: T1, SYMPK (UniProt Q92797)
T1 sequence: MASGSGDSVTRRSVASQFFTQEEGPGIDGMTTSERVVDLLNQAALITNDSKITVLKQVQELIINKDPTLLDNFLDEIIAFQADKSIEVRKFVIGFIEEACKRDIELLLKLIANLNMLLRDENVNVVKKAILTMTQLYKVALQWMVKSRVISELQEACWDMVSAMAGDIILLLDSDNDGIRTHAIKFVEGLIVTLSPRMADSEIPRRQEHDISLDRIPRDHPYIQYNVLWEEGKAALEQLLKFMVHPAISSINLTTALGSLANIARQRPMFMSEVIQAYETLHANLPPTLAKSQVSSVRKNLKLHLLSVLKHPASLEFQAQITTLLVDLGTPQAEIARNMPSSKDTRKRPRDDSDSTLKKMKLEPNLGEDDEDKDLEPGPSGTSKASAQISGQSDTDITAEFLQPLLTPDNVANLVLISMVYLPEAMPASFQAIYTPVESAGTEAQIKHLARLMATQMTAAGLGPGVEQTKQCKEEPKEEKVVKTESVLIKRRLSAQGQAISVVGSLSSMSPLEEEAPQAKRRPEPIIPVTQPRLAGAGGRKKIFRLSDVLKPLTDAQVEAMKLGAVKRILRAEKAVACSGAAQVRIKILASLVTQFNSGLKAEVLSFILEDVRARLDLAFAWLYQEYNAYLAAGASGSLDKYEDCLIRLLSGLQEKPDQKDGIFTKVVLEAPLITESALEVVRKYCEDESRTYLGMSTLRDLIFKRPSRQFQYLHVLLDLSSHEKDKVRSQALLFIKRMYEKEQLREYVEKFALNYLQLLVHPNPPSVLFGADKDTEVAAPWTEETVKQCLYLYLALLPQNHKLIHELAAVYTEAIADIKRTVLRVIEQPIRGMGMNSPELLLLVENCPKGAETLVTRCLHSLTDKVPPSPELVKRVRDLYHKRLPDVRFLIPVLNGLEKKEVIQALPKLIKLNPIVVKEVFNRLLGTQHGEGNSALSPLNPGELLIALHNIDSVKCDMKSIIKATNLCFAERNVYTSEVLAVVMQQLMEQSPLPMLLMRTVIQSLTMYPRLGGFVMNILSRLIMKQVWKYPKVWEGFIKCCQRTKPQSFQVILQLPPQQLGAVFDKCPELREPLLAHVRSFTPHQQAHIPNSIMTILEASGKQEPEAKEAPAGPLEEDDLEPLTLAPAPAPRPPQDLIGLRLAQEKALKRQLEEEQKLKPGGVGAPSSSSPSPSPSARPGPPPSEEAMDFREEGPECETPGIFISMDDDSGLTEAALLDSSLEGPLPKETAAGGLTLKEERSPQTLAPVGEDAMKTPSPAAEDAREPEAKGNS
In short: (§1)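 HEK293-FT lysate (2.5 mg protein/well) was pre-incubated 1 h at 4°C with free RNA oligos (0 nM to 30 μM), then 30 min at 4°C with the same 5′-amino-C6 oligos coupled to NHS-Sepharose beads. Bound proteins were quantified by label-free LC-MS/MS in three biological replicates and two independent experiments, and normalised to the water control. EC50 came from a four-parameter log-logistic fit; Kd is EC50 times a protein-dependent depletion factor.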

PTBP3 = PTBP3 (UniProt O95758)
Sequence of PTBP3 (O95758 whole entry): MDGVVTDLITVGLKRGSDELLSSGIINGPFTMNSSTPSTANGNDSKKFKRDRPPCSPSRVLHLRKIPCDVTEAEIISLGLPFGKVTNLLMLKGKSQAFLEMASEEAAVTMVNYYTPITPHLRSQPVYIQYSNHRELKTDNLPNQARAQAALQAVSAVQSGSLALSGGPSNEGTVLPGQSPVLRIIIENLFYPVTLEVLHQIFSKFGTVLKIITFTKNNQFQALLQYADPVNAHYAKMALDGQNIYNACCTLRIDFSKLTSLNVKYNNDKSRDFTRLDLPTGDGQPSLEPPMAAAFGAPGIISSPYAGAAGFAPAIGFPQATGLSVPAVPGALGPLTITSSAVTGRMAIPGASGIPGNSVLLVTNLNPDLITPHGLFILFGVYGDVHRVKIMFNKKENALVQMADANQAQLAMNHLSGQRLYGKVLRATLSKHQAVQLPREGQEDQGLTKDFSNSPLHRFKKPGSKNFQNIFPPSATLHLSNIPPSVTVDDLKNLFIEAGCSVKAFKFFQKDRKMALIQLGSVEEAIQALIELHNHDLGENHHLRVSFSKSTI
In short: as §1

MRPL12 = MRPL12 (UniProt P52815)
In short: as §1

DHX37 = target: T2, DHX37 (UniProt Q8IY37)
T2 sequence: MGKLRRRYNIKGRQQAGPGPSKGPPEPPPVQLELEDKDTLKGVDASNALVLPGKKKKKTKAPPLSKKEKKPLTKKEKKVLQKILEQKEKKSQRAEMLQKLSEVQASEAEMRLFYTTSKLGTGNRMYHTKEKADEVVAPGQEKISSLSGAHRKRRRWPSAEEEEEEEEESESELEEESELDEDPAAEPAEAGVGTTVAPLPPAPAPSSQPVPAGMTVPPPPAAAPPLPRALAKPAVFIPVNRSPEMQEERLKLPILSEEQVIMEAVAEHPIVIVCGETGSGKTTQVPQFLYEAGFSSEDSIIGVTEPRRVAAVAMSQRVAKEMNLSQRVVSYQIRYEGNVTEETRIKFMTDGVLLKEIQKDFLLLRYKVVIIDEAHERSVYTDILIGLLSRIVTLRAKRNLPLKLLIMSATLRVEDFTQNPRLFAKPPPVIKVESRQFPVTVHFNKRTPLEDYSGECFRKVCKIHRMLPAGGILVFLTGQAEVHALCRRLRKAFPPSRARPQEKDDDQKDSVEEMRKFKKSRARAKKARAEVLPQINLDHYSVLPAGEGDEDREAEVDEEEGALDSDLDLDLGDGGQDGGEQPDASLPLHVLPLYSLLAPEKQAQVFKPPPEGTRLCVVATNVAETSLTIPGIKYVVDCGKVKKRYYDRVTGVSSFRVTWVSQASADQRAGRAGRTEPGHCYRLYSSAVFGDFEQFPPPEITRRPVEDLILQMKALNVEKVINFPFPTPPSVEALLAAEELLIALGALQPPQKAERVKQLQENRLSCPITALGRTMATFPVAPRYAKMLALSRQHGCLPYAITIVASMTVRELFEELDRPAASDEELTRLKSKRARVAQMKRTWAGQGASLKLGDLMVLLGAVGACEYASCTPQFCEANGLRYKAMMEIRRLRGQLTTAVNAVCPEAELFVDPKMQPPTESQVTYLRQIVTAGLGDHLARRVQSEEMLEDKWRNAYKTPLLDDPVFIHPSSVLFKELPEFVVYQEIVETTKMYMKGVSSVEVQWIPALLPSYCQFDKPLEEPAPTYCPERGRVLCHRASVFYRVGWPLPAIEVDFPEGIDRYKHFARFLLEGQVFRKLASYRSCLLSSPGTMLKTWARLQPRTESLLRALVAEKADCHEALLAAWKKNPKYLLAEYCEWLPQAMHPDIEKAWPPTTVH
In short: as §1

PTCD3 = PTCD3 (UniProt Q96EY7)
In short: as §1

MRPS18B = MRPS18B (UniProt Q9Y676)
In short: as §1

AAUAAA
EC50 (SYMPK): 116 nM | EC50 (PTBP3): 6990 nM

CUGUCCU
EC50 (MRPL12): 115 nM

UAUUUAU
EC50 (DHX37): 4680 nM | EC50 (PTCD3): 50 nM | EC50 (MRPS18B): 51.4 nM
